The source of these data is paper PMC5222588, “Binding of Myomesin to Obscurin-Like-1 at the Muscle M-Band Provides a Strategy for Isoform-Specific Mechanical Protection” (Structure(London, England:1993), 2017).

Experiment [1] addresses OL3:My4LMy5 complex (obscurin-like-1:myomesin heterodimer) (human) (UniProt O75147). Description: SEC; Superdex S75 10/300; OL3:My4LMy5 complex injected at 3.0 and 8.2 mg/mL (0.082–0.225 mM); dimer of heterodimers to heterodimers.
The target is the same in experiment [2]. The experiment in a line: crystal structure; OL3:My4LMy5 complex at 3.0 mg/mL; 20% PEG8000, 0.1 M Tris-HCl pH 8.5, 0.2 M MgCl2, matrix microseeding; 3.1 Å, space group C2.
For experiment [3], the target named is T1, obscurin-like-1 third immunoglobulin domain (OL3) (human, UniProt O75147 251-339).
T1 construct: obscurin-like-1, human, third Ig domain (OL3); the printed contact residues F265 to V332 lie in it; Insoluble when expressed alone; obtained only by co-expression with myomesin; Construct limits are in the Supplemental Experimental Procedures; source: E. coli, co-expressed with myomesin from a bicistronic vector, purified as a complex (SEC); not shown: GST, N-terminal, cleaved
T1 sequence: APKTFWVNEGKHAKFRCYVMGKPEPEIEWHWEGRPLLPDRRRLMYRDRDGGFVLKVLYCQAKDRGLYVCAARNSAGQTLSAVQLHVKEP
Description: SEC; GST-cleaved complexes co-expressed in E. coli from a bicistronic vector; SEC during purification. Particulars: both partners purified.

Experiment [4] deals with T2, obscurin third immunoglobulin domain (O3) (human, UniProt Q5VST9 236-331).
T2 construct: obscurin, human, third Ig domain (O3); Insoluble when expressed alone; source: E. coli, co-expressed with myomesin My4LMy5 from a bicistronic vector, purified as a complex (SEC); not shown: GST, N-terminal, cleaved
T2 sequence (looked up): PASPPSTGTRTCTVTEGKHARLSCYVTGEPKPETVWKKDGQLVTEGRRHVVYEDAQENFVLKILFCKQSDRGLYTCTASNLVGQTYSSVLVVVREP
Described as above. Particulars: both partners purified.

For “OL3:My4LMy5 complex (obscurin-like-1:myomesin heterodimer) (from UniProt O75147 251-339; P52179 510-739)”, in experiment [1], the dimer:monomer ratio at 8.2 mg/mL was 30 % dimer and the stoichiometry N was 2. Moreover, the stoichiometry N in experiment [2] turned out to be 2.

B1: myomesin region encompassing the fourth and fifth Fn-III domains (My4LMy5) (domain or fragment, human)
chain: PAAPLDVKCLEANKDYIIISWKQPAVDGGSPILGYFIDKCEVGTDSWSQCNDTPVKFARFPVTGLIEGRSYIFRVRAVNKMGIGFPSRVSEPVAALDPAEKARLKSRPSAPWTGQIIVTEEEPSEGIVPGPPTDLSVTEATRSYVVLSWKPPGQRGHEGIMYFVEKCEAGTENWQRVNTELPVKSPRFALFDLAEGKSYCFRVRCSNSAGVGEPSEATEVTVVGDKLDIP
notes: myomesin (MYOM1), human, Fn-III domains My4 and My5 with the linker L between them; My4 begins near residue 510 (My4LH is 510-618); My5 is in the crystallised protein but invisible in the electron density; Construct limits are in the Supplemental Experimental Procedures; also called My4L (name of the part visible in the crystal); source: E. coli, co-expressed with GST-OL3 or GST-O3 from a …
Consider B1, for which the “stoichiometry N” value in experiment [3] and in experiment [4] was 1 each time.
